Assay results taken from PMC4703834.

Target: Δ4-DgkA (thermostable mutant of Escherichia coli diacylglycerol kinase) (Escherichia coli) (UniProt P0ABN1)
Test: crystal structure; in meso (lipid cubic phase) crystals of Δ4-DgkA in 9.9 MAG at 4 °C, soaked with zinc-ACP (ternary complex, 2.7 Å) or without nucleotide; synchrotron data at 100 K

For “Δ4-DgkA (thermostable mutant of Escherichia coli diacylglycerol kinase) (from UniProt P0ABN1 2-122) (enzyme)”, the stoichiometry N was 3.
